Target: SAV1 (UniProt Q9H4B6)
Experiment: biotin-peptide pull-down from cell lysate
Conditions: reference: unphosphorylated Akt1 peptide; sites Y26

## Akt1 PH domain peptide (from UniProt P31749) pY26 Akt1 peptide
  binding against the reference: weaker
